Reference: doi:10.1101/2021.11.25.470006 (bioRxiv, 2021)

Legend:
Test in all cases: cryo-EM structure
[1] = target: T1, Smc5 (Walker B mutant E1015Q) (S. cerevisiae, UniProt Q08204 1-1093, E1015Q, BS3-crosslinked within the holo-complex)
T1 sequence: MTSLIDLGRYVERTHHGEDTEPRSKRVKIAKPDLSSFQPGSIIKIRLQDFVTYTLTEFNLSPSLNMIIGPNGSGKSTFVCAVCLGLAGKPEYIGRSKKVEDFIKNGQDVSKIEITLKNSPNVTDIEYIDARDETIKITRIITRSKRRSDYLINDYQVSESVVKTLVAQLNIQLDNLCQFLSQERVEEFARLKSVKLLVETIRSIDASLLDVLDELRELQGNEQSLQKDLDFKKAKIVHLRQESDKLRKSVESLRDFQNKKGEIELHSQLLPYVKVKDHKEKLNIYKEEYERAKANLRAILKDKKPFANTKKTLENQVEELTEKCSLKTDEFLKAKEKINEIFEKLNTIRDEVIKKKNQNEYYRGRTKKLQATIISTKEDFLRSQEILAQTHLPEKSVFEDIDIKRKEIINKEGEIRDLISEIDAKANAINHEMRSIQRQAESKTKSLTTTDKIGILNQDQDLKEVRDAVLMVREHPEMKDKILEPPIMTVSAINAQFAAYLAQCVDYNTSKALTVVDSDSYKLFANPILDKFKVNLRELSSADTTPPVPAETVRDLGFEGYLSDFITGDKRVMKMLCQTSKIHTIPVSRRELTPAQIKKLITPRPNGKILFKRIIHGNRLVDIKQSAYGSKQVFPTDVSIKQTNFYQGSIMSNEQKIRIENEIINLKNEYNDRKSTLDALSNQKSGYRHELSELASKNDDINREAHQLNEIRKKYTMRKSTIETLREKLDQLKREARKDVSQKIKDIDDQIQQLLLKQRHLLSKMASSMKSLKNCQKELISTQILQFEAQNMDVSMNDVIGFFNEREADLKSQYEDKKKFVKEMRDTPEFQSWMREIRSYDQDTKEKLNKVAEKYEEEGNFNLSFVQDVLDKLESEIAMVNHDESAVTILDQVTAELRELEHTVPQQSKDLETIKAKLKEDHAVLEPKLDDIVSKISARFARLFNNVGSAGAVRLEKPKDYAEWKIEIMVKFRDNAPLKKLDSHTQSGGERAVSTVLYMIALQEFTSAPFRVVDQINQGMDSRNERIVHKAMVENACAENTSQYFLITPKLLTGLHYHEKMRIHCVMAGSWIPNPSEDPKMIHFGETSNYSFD

[2] = target: T2, Nse4 (HALO-tagged) (S. cerevisiae, UniProt P43124 1-402, BS3-crosslinked within the holo-complex)
T2 sequence: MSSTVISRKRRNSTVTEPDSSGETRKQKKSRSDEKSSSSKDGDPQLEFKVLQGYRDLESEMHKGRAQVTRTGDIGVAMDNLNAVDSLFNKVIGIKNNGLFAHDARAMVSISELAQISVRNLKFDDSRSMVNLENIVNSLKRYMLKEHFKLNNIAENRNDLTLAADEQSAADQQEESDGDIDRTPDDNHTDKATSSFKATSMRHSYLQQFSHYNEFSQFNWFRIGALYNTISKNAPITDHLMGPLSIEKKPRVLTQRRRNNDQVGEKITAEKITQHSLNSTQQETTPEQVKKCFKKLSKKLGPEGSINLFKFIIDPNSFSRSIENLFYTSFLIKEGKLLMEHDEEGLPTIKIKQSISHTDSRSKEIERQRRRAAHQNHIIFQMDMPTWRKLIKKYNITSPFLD

[3] = target: T3, Nse1 (S. cerevisiae, UniProt Q07913 1-336, BS3-crosslinked within the holo-complex)
T3 sequence: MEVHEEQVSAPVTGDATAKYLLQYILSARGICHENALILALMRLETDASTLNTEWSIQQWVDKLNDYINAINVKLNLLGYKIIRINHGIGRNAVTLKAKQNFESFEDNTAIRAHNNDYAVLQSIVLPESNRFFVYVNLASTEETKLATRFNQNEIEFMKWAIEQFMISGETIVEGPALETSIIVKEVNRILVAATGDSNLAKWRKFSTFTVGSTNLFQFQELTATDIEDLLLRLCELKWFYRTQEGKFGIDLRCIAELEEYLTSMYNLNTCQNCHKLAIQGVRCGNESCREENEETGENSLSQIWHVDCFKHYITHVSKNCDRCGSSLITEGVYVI

Measured: binding result

B1: Nse3 (natural protein, S. cerevisiae)
chain: MSSIDNDSDVDLTEDLAVAKIVKENPVARKMVRYILSRGESQNSIITRNKLQSVIHEAAREENIAKPSFSKMFMDINAILYNVYGFELQGLPSKNNMNAGGNGSNSNTNKSMPEPLGHRAQKFILLNNVPHSKNFDDFKILQSAHTYEELIVTGEYIGDDIASGTSNTLESKLSTDRDLVYKGVLSVILCIVFFSKNNILHQELIKFLETFGIPSDGSKIAILNITIEDLIKSLEKREYIVRLEEKSDTDGEVISYRIGRRTQAELGLESLEKLVQEIMGLEKEQTKSLHDDIIKSIGDSYSI
modifications: BS3-crosslinked within the holo-complex
binds: [1] | [2] | [3]
